Measurements as given in patent US20220040304A1, “A COMPOSITION FOR CANCER CELL DEATH AND ITS USE” (Industry-University Cooperation Foundation Hanyang …, priority 2018, published 2022).

How the values were obtained:
Format in all cases: cell-based, human
MCF-7 cells [1] = test: Cell death according to incubation time after various Co-h concentrations (SYTOX Green/DAPI); conditions: MCF-7, protein 10 μM
Experimental: MCF-7 cells were seeded at 5×10^5 cells/mL in a 96-well plate (SPL Cell Culture Plate, 96 well (SPL, Cat #30096)), and cultured at 37° C. for 24 hours (overnight). After the culture for 24 hours, the cells were washed with FBS & Phenol red-free media (RPMI, Well Gene., Korea, Cat #LM011-02), and 100 μL of an FBS-free medium containing the purified protein (final concentration: 10 μM) was added, followed by reaction at 37° C. for 24 hours.
After the reaction for 24 hours, the cells were washed with FBS & Phenol red-free media (RPMI), and then 100 μL of FBS & Phenol red-free media (RPMI) was added again. The reaction was performed by each concentration of the Co-h substrate solution, and then the cells were incubated at 37° C.
After incubation, 50 μL of SYTOX Green (final concentration: 261 nM) staining DNA of dead cells and DAPI 10 μL of DAPI staining DNA of live cells were added, followed by reaction for 5 minutes. Cell death was confirmed by detecting KillerRed, SYTOX Green and DAPI fluorescence according to the light irradiation time for cells using a confocal microscope.

MCF-7 = test: Cell death after light irradiation by cell type (SYTOX Green/DAPI); conditions: MCF-7, protein 10 μM, light 10 mW/cm^2 for 10 minutes
Experimental: Data on each breast cancer cell line is as follows (Table 4): MCF-7: (Origin: breast, mammary gland, Species: human—person, Growth pattern: monolayer, Media: RPMI1640 with L-glutamine (300 mg/L), 25 mM HEPES and 25 mM NaHCO3, 90%; heat inactivated fetal bovine serum (FBS), 10%), purchased from Korean Cell Line Bank (KCLB).
(§1) The cells were seeded at 5×10^5 cells/mL in 96-well plates (SPL Cell Culture Plate, 96 well (SPL, Cat #30096)), and cultured at 37° C. for 24 hours (overnight). After the culture for 24 hours, the cells were washed with FBS & phenol red-free media, and 100 μL of FBS & phenol red-free media containing a purified protein (final concentration: 10 μM) was added, followed by reaction at 37° C. for 24 hours. After the reaction for 24 hours, the cells were washed with FBS & phenol red-free media, and 100 μL of FBS & phenol red-free media was added.
After irradiation with light at 10 mW/cm^2 for 10 minutes, 50 μL (final concentration: 261 nM) of SYTOX Green staining DNA of dead cells was added, followed by reaction at 37° C. for 30 minutes. 10 μL of DAPI staining DNA of live cells was added, followed by reaction for 5 minutes. Cell death was confirmed by observing KillerRed, SYTOX Green and DAPI fluorescence using a confocal microscope.

MCF-7 cells [2] = test: Cell death according to presence of serum and protein concentration (Co-h); conditions: MCF-7, serum-free media or serum-containing media, 12 hours, Co-h 150 μM
Experimental: MCF-7 cells were seeded at 5×10^5 cells/mL in a 96-well plate (SPL Cell Culture Plate, 96 well (SPL, Cat #30096)), and cultured at 37° C. for 24 hours (overnight). After the culture for 24 hours, the cells were washed with FBS & Phenol red-free media (RPMI), and 100 μL of FBS & Phenol red-free media (RPMI) or FBS media (RPMI) containing a predetermined concentration of purified protein, followed by reaction at 37° C. for 12 hours.
After the reaction for […], the cells were washed with FBS & Phenol red-free media (RPMI), 100 μL of FBS & Phenol red-free media (RPMI) containing a Co-h substrate solution (final concentration: 150 μM) and SYTOX Green (final concentration: 261 nM) staining DNA of dead cells was added, followed by reaction at 37° C. for 30 minutes.
After the reaction, 10 μL of DAPI staining DNA of live cells was added, followed by reaction for 5 minutes. Cell death was confirmed by observing KillerRed, SYTOX Green and DAPI fluorescence using a confocal microscope.

MCF-10A = test: Cell death with Co-h substrate by cell type (SYTOX Green or EthD-1/DAPI); conditions: protein 10 μM, Co-h 150 μM for 5 minutes
Experimental: as §1, with “hours.” for “hours. After the reaction for 24 hours, the cells were washed with FBS & phenol red-free media, and 100 μL of FBS & phenol red-free media was added.”
(§2) Subsequently, the cells were washed with FBS & phenol red-free media, and 100 μL of FBS & phenol red-free media was added. 100 μL of FBS & Phenol red-free media (RPMI) containing a Co-h substrate solution (final concentration: 150 μM) was added, followed by reaction at 37° C. for 5 minutes.
(§3) After the reaction, 50 μL of SYTOX Green (final concentration: 261 nM) or 90 μL of ethidium homodimer (EthD-1) (final concentration 1×), which stains DNA of dead cells, was added, followed by reaction at 37° C. for 30 minutes. 10 μL of DAPI staining DNA of live cells was added, followed by reaction for 5 minutes. Cell death was confirmed by observing KillerRed, SYTOX Green, MiniSOG, EthD-1 and DAPI fluorescence using a confocal microscope.

SK-BR-3 = test: as above; conditions: SK-BR-3, protein 10 μM, Co-h 150 μM for 5 minutes
Experimental: as §1, with “hours.” for “hours. After the reaction for 24 hours, the cells were washed with FBS & phenol red-free media, and 100 μL of FBS & phenol red-free media was added.”
as §2, §3

BT-474 = test: as above; conditions: BT-474, protein 10 μM, Co-h 150 μM for 5 minutes
Experimental: as §1, with “hours.” for “hours. After the reaction for 24 hours, the cells were washed with FBS & phenol red-free media, and 100 μL of FBS & phenol red-free media was added.”
as §2, §3

| Molecule | cell incubation time after which the number of cells stained with SYTOX Green increased (MCF-7 cells [1]; 25 μM or 50 μM substrate solution for 5 minutes) | cell incubation time at which cells stained with SYTOX Green were observed (MCF-7 cells [1]; 150 μM substrate solution for 5 minutes) | cell death after light irradiation (MCF-7) | number of cells stained with SYTOX Green according to protein concentration (MCF-7 cells [2]) | cell death with Co-h substrate (MCF-10A) | cell death with Co-h substrate (SK-BR-3) | cell death with Co-h substrate (BT-474) |
| --- | --- | --- | --- | --- | --- | --- | --- |
| RLuc8.6-KR-LP: fusion protein of RLuc8.6, KillerRed and lead peptide WLEAAYQRFL, 71 kDa (protein, pRSET-RLuc8.6-KillerRed-Lead peptide) MRGSHHHHHHGMASMTGGQQMGRDLYDDDDKDPMASKVYDPEQRKRMITGPQWWARCKQMNVLDSFINYYDSEKHAENAVIFLHGNATSSYLWRHVVPHIEPVARCIIPDLIGMGKSGKSGNGSYRLLDHYKYLTAWFELLNLPKKIIFVGHDWGSALAFHYAYEHQDRIKAIVHMESVVDVIESWMGWPDIEEELALIKSEEGEKMVLENNFFVETLLPSKIMRKLEPEEFAAYLEPFKEKGEVRRPTLSWPREIPLVKGGKPDVVQIVRNYNAYLRASDDLPKLFIESDPGFFYNAIVEGAKKFPNTEFVKVKGLHFLQEDAPDEMGKYIKSFVERVLKNEQEFGGGMLCCMRRTKQVEKNDEDQKISEGGPALFQSDMTFKIFIDGEVNGQKFTIVADGSSKFPHGDFNVHAVCETGKLPMSWKPICHLIQYGEPFFARYPDGISHFAQECFPEGLSIDRTVRFENDGTMTSHHTYELDDTCVVSRITVNCDGFQPDGPIMRDQLVDILPNETHMFPHGPNAVRQLAFIGFTTADGGLMMGHFDSKMTFNGSRAIEIPGPHFVTIITKQMRDTSDKRDHVCQREVAYAHSVPRITSAIGSDEDGGGWLEAAYQRFL | ≥ 30 min | approximately 10 minutes | killing the three types of cancer cell lines | the higher the number of cells stained with SYTOX Green |  |  |  |
| RLuc8.6-KR: fusion protein of RLuc8.6 and KillerRed without lead peptide, 69 kDa (protein, pRSET-RLuc8.6-KillerRed) MRGSHHHHHHGMASMTGGQQMGRDLYDDDDKDPMASKVYDPEQRKRMITGPQWWARCKQMNVLDSFINYYDSEKHAENAVIFLHGNATSSYLWRHVVPHIEPVARCIIPDLIGMGKSGKSGNGSYRLLDHYKYLTAWFELLNLPKKIIFVGHDWGSALAFHYAYEHQDRIKAIVHMESVVDVIESWMGWPDIEEELALIKSEEGEKMVLENNFFVETLLPSKIMRKLEPEEFAAYLEPFKEKGEVRRPTLSWPREIPLVKGGKPDVVQIVRNYNAYLRASDDLPKLFIESDPGFFYNAIVEGAKKFPNTEFVKVKGLHFLQEDAPDEMGKYIKSFVERVLKNEQEFGGGMLCCMRRTKQVEKNDEDQKISEGGPALFQSDMTFKIFIDGEVNGQKFTIVADGSSKFPHGDFNVHAVCETGKLPMSWKPICHLIQYGEPFFARYPDGISHFAQECFPEGLSIDRTVRFENDGTMTSHHTYELDDTCVVSRITVNCDGFQPDGPIMRDQLVDILPNETHMFPHGPNAVRQLAFIGFTTADGGLMMGHFDSKMTFNGSRAIEIPGPHFVTIITKQMRDTSDKRDHVCQREVAYAHSVPRITSAIGSDED |  |  |  |  | none of the six breast cancer cell lines were killed | none of the six breast cancer cell lines were killed | none of the six breast cancer cell lines were killed |
